# Reference: patent US20090081229A1 (published 2009)
# T1: HVEM expressed on transfected 293 cells (Homo sapiens (Human), UniProt Q92956 39-283)
# T1 construct: Transient transfection of human 293 cells with pRK5-HVEM; also called HVEM transfected cells; 293 cells expressing HVEM
# T1 sequence: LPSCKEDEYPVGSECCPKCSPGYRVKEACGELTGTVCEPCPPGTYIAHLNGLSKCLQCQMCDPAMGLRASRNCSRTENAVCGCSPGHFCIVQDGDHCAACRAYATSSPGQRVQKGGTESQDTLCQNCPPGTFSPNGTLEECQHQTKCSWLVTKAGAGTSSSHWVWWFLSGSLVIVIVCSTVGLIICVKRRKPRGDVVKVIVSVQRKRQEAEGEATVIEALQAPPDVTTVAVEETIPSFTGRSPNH
# T2: PRO87299(ECD)-Fc (human, UniProt Q7Z6A9 31-155)
# T2 construct: Reduced apparent molecular weight 55 kDa; also called PRO87299-Fc; PRO87299(ECD)-Fc chimera; not shown: human Fc domain
# T2 sequence: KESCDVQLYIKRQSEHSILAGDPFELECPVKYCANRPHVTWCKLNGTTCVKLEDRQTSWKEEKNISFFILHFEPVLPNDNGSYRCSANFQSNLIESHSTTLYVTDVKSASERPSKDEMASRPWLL
# T3: hICOS-Fc (human, UniProt Q9Y6W8 21-141)
# T3 construct: Bought; not shown: Fc; not described
# T3 sequence (looked up): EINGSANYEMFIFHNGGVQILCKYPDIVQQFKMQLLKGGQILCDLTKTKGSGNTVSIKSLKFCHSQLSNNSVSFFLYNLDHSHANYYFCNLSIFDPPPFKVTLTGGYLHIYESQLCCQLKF
# T4: hCTLA4-Fc (human, UniProt P16410 37-162, limits assumed)
# T4 construct: Bought; not shown: Fc; not described
# T4 sequence (looked up): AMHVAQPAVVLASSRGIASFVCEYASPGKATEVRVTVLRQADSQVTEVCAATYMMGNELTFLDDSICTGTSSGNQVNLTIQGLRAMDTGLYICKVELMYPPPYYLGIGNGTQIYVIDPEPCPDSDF
# Assays:
# [1] = biological target: T1, HVEM expressed on transfected 293 cells; experiment: radioligand binding to transfected cells, Scatchard analysis
# Experimental: (§1) PRO87299 binds to HVEM in a cell based assay. In this experiment human 293 cells (ATCC CCL 1573) are grown to confluence in tissue culture plates in medium such as DMEM supplemented with fetal calf serum and optionally, nutrient components and/or antibiotics. About 10 μg pRK5-HVEM DNA is mixed with about 1 μg DNA encoding the VA RNA gene [Thimmappaya et al., Cell, 31:543 (1982)] and dissolved in 500 μl of 1 mM Tris-HCl, 0.1 mM EDTA, 0.227 M CaCl₂. To this mixture is added, dropwise, 500 μl of 50 mM HEPES (pH 7.35), 280 mM NaCl, 1.5 mM NaPO₄, and a precipitate is allowed to form for 10 minutes at 25° C. The precipitate is suspended and added to the 293 cells and allowed to settle for about four hours at 37° C. The culture medium is aspirated off and 2 ml of 20% glycerol in PBS is added for 30 seconds. The 293 cells are then washed with serum free medium, fresh medium is added and the cells are incubated for about 5 days. Alternatively, about 10 μg pRK5-HVEM DNA is mixed with LipofectAMINE™ (Gibco/BRL, Gaithersburg Md.) reagent and transfection performed by following the manufacturer's instructions. After the 293 cells were transfected with HVEM, they were incubated with 1125 radiolabled PRO87299(ECD)-Fc and binding allowed to occur. The radiolabled PRO87299 was then competed off with unlabled PRO87299(ECD)-Fc and the estimated number of total binding sites and the dissociation constant (Kd) were determined by Scatchard analysis. FIG. 17(A) is a Scatchard plot and FIG. 17(B) is a displacement plot showing PRO87299(ECD)-Fc binding to HVEM transiently transfected cells. […] Using this methodology, the affinity of HVEM/LIGHT/PRO87299 interactions were determined.
# PRO87299(ECD)-Fc [2] = biological target: T2, PRO87299(ECD)-Fc; experiment: SPR (Biacore), PRO87299-Fc amine coupled at ~9800 RU
# Experimental: PRO87299 interaction to HVEM is not blocked by LIGHT. PRO87299-Fc was amine coupled to a Biacore™ CM5 sensor chip at ˜9800 response units. LIGHT (purchased from Alexis™, Cat. #552-018-C010) was incubated at the increasing concentrations with 4 nM HVEM for 1 hr. […] LIGHT activity was confirmed by binding to immobilized HVEM-Fc on a CM5 sensor chip (data not shown). […] All binding sensograms were run in random order and in duplicate. Response units were recorded as the difference between baseline and 15 seconds before the end of a 2 min injection at 5 μl/min. Concentrations are based on molecular weights of 25 kDa for LIGHT monomer and 55 kDa for monomer HVEM.
# PRO87299(ECD)-Fc [3] = biological target: T2, PRO87299(ECD)-Fc; experiment: SPR (Biacore), PRO87299(ECD)-Fc amine coupled at ~8000 RU
# Experimental: (§2) In this experiment, PRO87299(ECD)-Fc and CD28 family members hCTLA4-Fc, hPD-1-Fc, hICOS-Fc or hCD28-Fc were amine coupled to a Biacore™ CM5 chip at approximately 8000 response units. Each was then assayed for its ability to bind HVEM. An HVEM-Fc protein was made by ligating the nucleic acids encoding amino acids 1-199 of HVEM to a Fc, resulting in a HVEM-Fc fusion protein. This HVEM-Fc was cloned into an a expression vector which would produce the fusion protein when stably transfected into CHO cells. […] The result was 2 μg/ml of HVEM-Fc injected at 5 μl/min bound selectively to PRO87299 and not to the other member of the CD28 family members tested. The activity of each CD28 family member was confirmed positive by testing the binding response to their known ligands (data not shown) (CD28 family members and ligands were purchased from R&D systems).
# hCD28-Fc = biological target: T5, hCD28-Fc (human, UniProt P10747 19-152); experiment: SPR (Biacore), hCD28-Fc amine coupled at approximately 8000 RU
# T5 construct: Bought; not shown: Fc; not described
# Experimental: as §2
# hICOS-Fc = biological target: T3, hICOS-Fc; experiment: SPR (Biacore), hICOS-Fc amine coupled at approximately 8000 RU
# Experimental: as §2
# hPD-1-Fc = biological target: T6, hPD-1-Fc (human, UniProt Q15116 25-167); experiment: SPR (Biacore), hPD-1-Fc amine coupled at approximately 8000 RU
# T6 construct: Bought; not shown: Fc; not described
# Experimental: as §2
# hCTLA4-Fc = biological target: T4, hCTLA4-Fc; experiment: SPR (Biacore), hCTLA4-Fc amine coupled at approximately 8000 RU
# Experimental: as §2
# [4] = biological target: T7, PRO87299 expressed on cells (human, UniProt Q7Z6A9 31-289); experiment: radioligand binding to transfected cells, Scatchard analysis
# T7 construct: also called PRO87299 transfected cells; 293 cells expressing PRO87299
# Experimental: as §1
# [5] = biological target: T8, LIGHT expressed on transfected cells (Homo sapiens (Human), UniProt O43557 1-240); experiment: as above
# T8 construct: also called LIGHT (expressed protein)
# Experimental: as §1
# [6] = biological target: T9, PRO87299/LIGHT (both expressed on the same transfected cells) (human, UniProt Q7Z6A9 31-289; O43557 1-240); experiment: radioligand binding to cells expressing both PRO87299 and LIGHT, Scatchard analysis
# T9 construct: Two proteins co-expressed on cells as the target of I-125-HVEM-Fc; not a defined complex
# T6 sequence (Q15116 25-167 limits assumed): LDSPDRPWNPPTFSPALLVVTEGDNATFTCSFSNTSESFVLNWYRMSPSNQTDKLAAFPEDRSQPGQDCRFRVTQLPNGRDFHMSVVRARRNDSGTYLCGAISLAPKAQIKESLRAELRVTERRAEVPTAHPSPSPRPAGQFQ
# T5 sequence (P10747 19-152 limits assumed): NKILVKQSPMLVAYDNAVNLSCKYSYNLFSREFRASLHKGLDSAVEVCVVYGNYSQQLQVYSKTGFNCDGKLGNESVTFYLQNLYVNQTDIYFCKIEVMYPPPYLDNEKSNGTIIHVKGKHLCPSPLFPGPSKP
binder,measurement,setting,value
"LIGHT-FLAG (ligand, Radio-iodinated; also called I-125-LIGHT-FLAG; not shown: FLAG tag) GEMVTRLPDGPAGSWEQLIQERRSHEVNPAAHLTGANSSLTGSGGPLLWETQLGLAFLRGLSYHDGALVVTKAGYYYIYSKVQLGGVGCPLGLASTITHGLYKRTPRYPEELELLVSQQSPCGRATSSSRVWWDSSFLGGVVHLEAGEEVVVRVLDERLVRLRDGTRSYFGAFMV",Kd,[1],2.5 nM
"LIGHT (soluble, purchased from Alexis, Cat. #552-018-C010) (ligand, Bought soluble protein; Monomer molecular weight 25 kDa used for concentrations) GEMVTRLPDGPAGSWEQLIQERRSHEVNPAAHLTGANSSLTGSGGPLLWETQLGLAFLRGLSYHDGALVVTKAGYYYIYSKVQLGGVGCPLGLASTITHGLYKRTPRYPEELELLVSQQSPCGRATSSSRVWWDSSFLGGVVHLEAGEEVVVRVLDERLVRLRDGTRSYFGAFMV",binding result,PRO87299(ECD)-Fc [2],no binding
"HVEM-Fc (Fc fusion, Produced in stably transfected CHO cells, Protein A purified; also called HVEM-Fc fusion protein; I-125-HVEM-Fc; not shown: Fc) LPSCKEDEYPVGSECCPKCSPGYRVKEACGELTGTVCEPCPPGTYIAHLNGLSKCLQCQMCDPAMGLRASRNCSRTENAVCGCSPGHFCIVQDGDHCAACRAYATSSPGQRVQKGGTESQDTLCQNCPPGTFSPNGTLEECQHQTKCSWLVTKAGAGTSSS",binding result,PRO87299(ECD)-Fc [3],binds
same,binding result,hCD28-Fc,no binding (tested: 2 µg/ml)
same,binding result,hICOS-Fc,no binding (tested: 2 µg/ml)
same,binding result,hPD-1-Fc,no binding (tested: 2 µg/ml)
same,binding result,hCTLA4-Fc,no binding (tested: 2 µg/ml)
same,Kd,[4],5.5 nM
same,Kd,[5],7 nM
same,Kd,[6],0.5 nM
